Laboratory results reported in article PMC4303269.

Target: histone octamer

nucleosome formation fraction (package ratio, 15 min) of tethered 836-bp DNA in single-molecule TPM, 7.5 nM histone octamer pre-incubated with 15 nM yNap1, 150 mM NaCl (87.3 % without chaperone): 70.5%
Substance: nucleosome assembly protein 1 (yNap1) (from UniProt P25293 1-417) (natural protein)
